According to the Immune Epitope Database (IEDB):

Key:
HLA-B*07:02 = assay: IEDB peptide-MHC binding, purified MHC/direct/fluorescence; filed as Kd, often an IC50 or EC50 that approximates it; ≥ and ≤ were set here for values at or beyond the usual limits of such assays; conditions: source organism: Orthohantavirus andesense
HLA-B*08:01 = assay: as above; conditions: source organism: Hantavirus Monongahela-3
HLA-A*23:01 = assay: as above; conditions: source organism: Limestone Canyon virus
HLA-A*24:03 [1] = assay: as above; conditions: source organism: Limestone Canyon virus
HLA-A*01:01 = assay: as above; conditions: source organism: Orthohantavirus andesense
HLA-B*57:01 [2] = assay: as above; conditions: source organism: Orthohantavirus andesense
HLA-A*69:01 [3] = assay: as above; conditions: source organism: Orthohantavirus andesense
HLA-B*46:01 [4] = assay: as above; conditions: source organism: Orthohantavirus andesense
HLA-A*02:12 [5] = assay: as above
HLA-B*48:01 = assay: as above; conditions: source organism: Orthohantavirus andesense
HLA-A*02:01 [6] = assay: as above; conditions: source organism: Orthohantavirus andesense
HLA-B*27:05 = assay: as above; conditions: source organism: Orthohantavirus andesense
HLA-B*18:01 [7] = assay: as above; conditions: source organism: Orthohantavirus andesense
HLA-B*40:01 = assay: as above; conditions: source organism: Orthohantavirus andesense
HLA-B*58:01 = assay: as above; conditions: source organism: Orthohantavirus andesense
HLA-A*03:01 = assay: as above
HLA-A*68:02 [8] = assay: as above; conditions: source organism: Limestone Canyon virus
HLA-A*29:02 = assay: as above; conditions: source organism: Orthohantavirus andesense
HLA-B*44:02 = assay: as above; conditions: source organism: Orthohantavirus andesense
HLA-A*02:19 [9] = assay: as above
HLA-B*15:01 [10] = assay: as above; conditions: source organism: Orthohantavirus andesense
HLA-A*31:01 = assay: as above; conditions: source organism: Orthohantavirus andesense
HLA-A*11:01 = assay: as above; conditions: source organism: Orthohantavirus andesense
HLA-B*27:03 = assay: IEDB peptide-MHC binding, purified MHC/competitive/fluorescence; filed as Kd, often an IC50 or EC50 that approximates it; ≥ and ≤ were set here for values at or beyond the usual limits of such assays
HLA-B*39:01 = assay: as above
HLA-A*26:01 = assay: as above
HLA-B*15:17 = assay: as above
HLA-B*51:01 = assay: as above
HLA-A*24:03 [11] = assay: as above
HLA-B*57:01 [12] = assay: as above
HLA-A*69:01 [13] = assay: as above
HLA-B*46:01 [14] = assay: as above
HLA-A*02:12 [15] = assay: as above; conditions: source organism: Vibrio vulnificus YJ016
HLA-A*02:01 [16] = assay: as above
HLA-B*18:01 [17] = assay: as above
HLA-A*68:02 [18] = assay: as above; conditions: source organism: Vibrio vulnificus YJ016
HLA-A*02:03 [19] = assay: as above; conditions: source organism: Vibrio vulnificus YJ016
HLA-A*02:19 [20] = assay: as above; conditions: source organism: Vibrio vulnificus YJ016
HLA-B*15:01 [21] = assay: as above; conditions: source organism: Vibrio vulnificus YJ016
HLA-A*02:11 = assay: IEDB peptide-MHC binding, purified MHC/direct/fluorescence; filed as Kd, often an IC50 or EC50 that approximates it; ≥ and ≤ were set here for values at or beyond the usual limits of such assays; conditions: source organism: Choclo virus
HLA-A*02:16 = assay: as above; conditions: source organism: Choclo virus
HLA-A*02:03 [22] = assay: as above; conditions: source organism: Choclo virus
[23] = source organism: Limestone Canyon virus
[24] = source organism: Four Corners hantavirus
[25] = source organism: Vibrio vulnificus YJ016

Measured: Kd

EKLKKKSAF
≥ 5 µM: HLA-B*08:01
≥ 20 µM: HLA-B*07:02 | HLA-A*23:01 | HLA-A*24:03 [1] | HLA-A*01:01 | HLA-B*57:01 [2] | HLA-A*69:01 [3] | HLA-B*46:01 [4] | HLA-A*02:12 [5]; [23] | HLA-B*48:01 | HLA-A*02:01 [6] | HLA-B*27:05 | HLA-B*18:01 [7] | HLA-B*40:01 | HLA-B*58:01 | HLA-A*03:01; source organism: Orthohantavirus andesense | HLA-A*68:02 [8] | HLA-A*29:02 | HLA-B*44:02 | HLA-A*02:19 [9]; [23] | HLA-B*15:01 [10] | HLA-A*31:01 | HLA-A*11:01 | HLA-B*27:03; [24] | HLA-B*39:01; [24] | HLA-A*26:01; [24] | HLA-B*15:17; [24]

GMWCVLASR
0.93 µM: HLA-A*02:12 [15]
≥ 20 µM: HLA-B*51:01; [25] | HLA-A*24:03 [11]; [25] | HLA-B*57:01 [12]; [25] | HLA-A*69:01 [13]; [25] | HLA-B*46:01 [14]; [25] | HLA-B*27:03; [25] | HLA-A*02:01 [16]; [25] | HLA-B*18:01 [17]; [25] | HLA-A*68:02 [18] | HLA-B*39:01; [25] | HLA-A*26:01; [25] | HLA-A*02:03 [19] | HLA-B*15:17; [25] | HLA-A*02:19 [20] | HLA-B*15:01 [21]

HWMDATFNI
≤ 0.0001 µM: HLA-A*24:03 [11]; source organism: Choclo virus
≥ 20 µM: HLA-A*02:11 | HLA-A*02:12 [5]; source organism: Choclo virus | HLA-A*02:16 | HLA-A*03:01; source organism: Choclo virus | HLA-A*02:03 [22] | HLA-A*02:19 [9]; source organism: Choclo virus | HLA-B*51:01; source organism: Choclo virus | HLA-B*57:01 [12]; source organism: Choclo virus | HLA-A*69:01 [13]; source organism: Choclo virus | HLA-B*46:01 [14]; source organism: Choclo virus | HLA-B*27:03; source organism: Choclo virus | HLA-A*02:01 [16]; source organism: Choclo virus | HLA-B*18:01 [17]; source organism: Choclo virus | HLA-B*39:01; source organism: Choclo virus | HLA-A*26:01; source organism: Choclo virus | HLA-B*15:17; source organism: Choclo virus
